The text below walks through data of patent US10550165B2, “Peptide for inducing regeneration of tissue and use thereof” (STEMRIM INC., priority 2011, dated 2020).

Assay [1] relates to mouse bone marrow mesenchymal stem cell line (MSC-1 cells), PDGFRα-positive. In words: Migration assay (Boyden / 48-well chemotaxis chamber) on bone marrow mesenchymal stem cell line MSC-1. Type of assay: cell-based. To be noted: for migration-promoting activity per equal mass, 2-215 taken as 1 / migration-promoting activity per molar concentration, 2-215 taken as 1: FIGS. 18C and 18D. How it is done:
Cells of a mouse bone marrow mesenchymal stem cell line (MSC-1 cells, established by Tamai et al. of Osaka University (PDGFRα-positive cells in bone marrow are mobilized by high mobility group box 1 (HMGB1) to regenerate injured epithelia. (Tamai et al., Proc Natl Acad Sci USA. Apr. 4, 2011))) were detached from dishes using trypsin, and collected by centrifugation at 1200 rpm and 4° C. for 10 minutes. The resulting pellet was loosened and suspended at a cell concentration of 2.0×10^6 to 3.0×10^6 cells/ml by adding Dulbecco's Modified Eagle Medium (D-MEM) containing 10% fetal bovine serum (FBS). The recombinant protein and peptides produced in HEK293 were diluted with D-MEM containing 10% FBS. The negative control used was phosphate buffered saline (PBS). An acrylic Boyden chamber was used; cells of the mouse bone marrow mesenchymal stem cell line prepared at a cell concentration of 3×10^6 cells/ml were placed in its upper layer, while a diluted protein or peptide is added to the bottom layer. More specifically, a 28 μl aliquot of a protein or peptide solution was added to each well of the bottom plate of a 48-well chemotaxis chamber (NEURO PROBE 48WELL CHEMOTAXIS CHAMBER), and a polycarbonate membrane with 8 μm pores (Neuro Probe, Inc, Cat: 866-417-0014) was placed on the bottom plate. Then, an upper plate was placed on the membrane and screwed tightly. 50 μl of cells of the mouse bone marrow mesenchymal stem cell line after concentration adjustment were added to the upper plate wells. The chamber was placed in an incubator under 5% CO2 at 37° C. After four hours, the membrane was removed from the chamber and stained with Diff-Quik (Sysmex, Cat: 16920) to detect cells that migrated through membrane pores to the lower compartment.
The peptides listed below were custom synthesized using the solid phase method by Medical & Biological Laboratories (MBL). The peptides were synthesized based on the mouse HMGB1 sequence (SEQ ID NO: 3). Synthetic peptides described in subsequent Examples were also prepared based on the mouse HMGB1 sequence. • A synthetic peptide consisting of the amino acid sequence from positions 1 to 10 of HMGB1 (1-10); • a synthetic peptide consisting of the amino acid sequence from positions 1 to 34 of HMGB1 (1-34); • a synthetic peptide consisting of the amino acid sequence from positions 37 to 62 of HMGB1 (37-62); • a synthetic peptide consisting of the amino acid sequence from positions 27 to 62 of HMGB1 (27-62); • a synthetic peptide consisting of the amino acid sequence from positions 56 to 72 of HMGB1 (56-72); • a synthetic peptide consisting of the amino acid sequence from positions 11 to 20 of HMGB1 (11-20); • a synthetic peptide consisting of the amino acid sequence from positions 11 to 25 of HMGB1 (11-25); • a synthetic peptide consisting of the amino acid sequence from positions 11 to 30 of HMGB1 (11-30); • a synthetic peptide consisting of the amino acid sequence from positions 11 to 34 of HMGB1 (11-34); • a synthetic peptide consisting of the amino acid sequence from positions 11 to 44 of HMGB1 (11-44); • a synthetic peptide consisting of the amino acid sequence from positions 17 to 44 of HMGB1 (17-44); • a synthetic peptide consisting of the amino acid sequence from positions 1 to 25 of HMGB1 (1-25); and the whole mouse HMGB1 produced in HEK293 (1-215(HEK)) as a positive control were adjusted to 100 μg/ml and placed in the lower layer of a chemotaxis chamber to assess the migration-promoting activity on bone marrow mesenchymal stem cell line (MSC-1). Results
As positive controls, centrifuged supernatant of the skin of a one-day-old mouse (one individual) incubated in PBS at 4° C. for 12 hours, and the whole mouse HMGB1 (HMGB1(HEK_1-215)) produced in HEK293 were used. […]

Assay [2] relates to human-derived bone marrow mesenchymal stem cells (hMSC). In words: Migration assay on human-derived bone marrow mesenchymal stem cells. Type of assay: cell-based. Conditions: human HMGB1 fragments produced in E. coli, 2 μM, FIG. 21B. An excerpt: Human HMGB1 fragments (2-215, 2-84, 2-44, 45-84, 85-169, 89-185, 89-195, and 89-205) were produced in E. coli and purified using appropriate columns in the same manner as described in Examples 14, 15, and 16 above. However, 89-215 was purified by the same method as used for 89-205 in Example 15.
Using human-derived bone marrow mesenchymal stem cells, each fragment was examined by the same migration assay performed on mouse-derived bone marrow mesenchymal stem cells (MSC-1) as described above. The fragments were used at a final concentration of 2 μM. The human-derived bone marrow mesenchymal stem cells used were hMSC (human Mesenchymal Stem Cell, Takara) at fourth passage. The growth medium used was a mesenchymal stem cell growth medium (MF medium, TOYOBO). The cells were cultured in an incubator under 5% CO2 at 37° C. The medium was changed with a fresh medium every two to four days. The cells were passaged when they reached 80% confluency.

Where [3] appears, read: human HMGB1 fragments produced in E. coli, 2 μM, FIG. 18B.
Setting [4] is: human HMGB1 fragments produced in E. coli, 2 μM.
Setting [5] is: human HMGB1 fragments 89-215, 89-205, 89-195, 89-185 and their Q column fractions, E. coli, 2 μM, FIGS. 19B and 19D.
[6] abbreviates: human HMGB1 fragments 2-215, 2-205, 2-195, 2-185 produced in E. coli, 2 μM, FIG. 21A.

As for “2-44: human HMGB1 fragment, positions 2 to 44, produced in E. coli (GKGDPKKPRGKMSSYAFFVQTCREEHKKKHPDASVNFSEFSKK; UniProt P09429 2-44, looked up, fragment)”, the migration-promoting activity entry in assay [1] (setting [3]) is “showed migration-promoting activity on bone marrow mesenchymal stem cells”. Further, in assay [1] (setting [4]), the “migration-promoting activity per equal mass, 2-215 taken as 1” value is 7.1 times and the “migration-promoting activity per molar concentration, 2-215 taken as 1” value was determined as 1.82 times. The migration-promoting activity entry in assay [2] is “greater than human HMGB1 fragment (2-215)”.

For the molecule “45-84: peptide of positions 45 to 84 of mouse HMGB1, produced using HEK293 (CSERWKTMSAKEKGKFEDMAKADKARYEREMKTYIPPKGE; UniProt P63158 45-84, looked up, fragment)”, the migration-promoting activity entry in assay [1] (setting [3]) was “showed migration-promoting activity on bone marrow mesenchymal stem cells”; in assay [1] (protein and peptides produced using HEK293 (mouse HMGB1), 50 μg/ml, 4 h, FIG. 2A), “showed migration-promoting activity”; in assay [2] it was “greater than human HMGB1 fragment (2-215)”. For the same molecule, the “migration-promoting activity per equal mass, 2-215 taken as 1” value in assay [1] (setting [4]) is 8.1 times. In assay [1] (setting [4]), the “migration-promoting activity per molar concentration, 2-215 taken as 1” value was 2.04 times.

B1: 89-215: human HMGB1 fragment, positions 89 to 215, produced in E. coli (protein, UniProt P09429 89-215, looked up, fragment)
chain: FKDPNAPKRPPSAFFLFCSEYRPKIKGEHPGLSIGDVAKKLGEMWNNTAADDKQPYEKKAAKLKEKYEKDIAAYRAKGKPDAAKKGVVKAEKSKKKKEEEEDEEDEEDEEEEEDEEDEDEEEDDDDE
On to B1, for which the migration-promoting activity entry in assay [1] (setting [5]) was “weak migration-promoting activity”.

B2: 93-215: human HMGB1 fragment, positions 93 to 215, produced in E. coli (protein, UniProt P09429 93-215, looked up, fragment)
chain: NAPKRPPSAFFLFCSEYRPKIKGEHPGLSIGDVAKKLGEMWNNTAADDKQPYEKKAAKLKEKYEKDIAAYRAKGKPDAAKKGVVKAEKSKKKKEEEEDEEDEEDEEEEEDEEDEDEEEDDDDE
Consider B2, for which the migration-promoting activity result in assay [1] (setting [3]) is given as “showed migration-promoting activity on bone marrow mesenchymal stem cells”.

B3: 2-185: human HMGB1 fragment, amino acids of positions 2 to 185, produced in E. coli (protein, UniProt P09429 2-185, looked up, fragment)
chain: GKGDPKKPRGKMSSYAFFVQTCREEHKKKHPDASVNFSEFSKKCSERWKTMSAKEKGKFEDMAKADKARYEREMKTYIPPKGETKKKFKDPNAPKRPPSAFFLFCSEYRPKIKGEHPGLSIGDVAKKLGEMWNNTAADDKQPYEKKAAKLKEKYEKDIAAYRAKGKPDAAKKGVVKAEKSKKKK
Turning to B3, the migration-promoting activity result in assay [1] (setting [6]) was “stronger migration-promoting activity than fragments 2-215 and 2-205”.

B4: 2-84: human HMGB1 fragment, positions 2 to 84, produced in E. coli (protein, UniProt P09429 2-84, looked up, fragment)
chain: GKGDPKKPRGKMSSYAFFVQTCREEHKKKHPDASVNFSEFSKKCSERWKTMSAKEKGKFEDMAKADKARYEREMKTYIPPKGE
In the case of B4, the migration-promoting activity entry in assay [1] (fragment 2-84 and fusions with acidic tail fragments, produced in E. coli, FIG. 21D) is recorded as “exhibited migration-promoting activity”; in assay [1] (setting [3]), “showed migration-promoting activity on bone marrow mesenchymal stem cells”; in assay [2], “greater than human HMGB1 fragment (2-215)”. In addition, the “migration-promoting activity per equal mass, 2-215 taken as 1” value in assay [1] (setting [4]) is 5.5 times. Further, the “migration-promoting activity per molar concentration, 2-215 taken as 1” value in assay [1] (setting [4]) was found to be 2.37 times.

B5: 2-81: human HMGB1 fragment, positions 2 to 81, produced in E. coli (protein, UniProt P09429 2-81, looked up, fragment)
chain: GKGDPKKPRGKMSSYAFFVQTCREEHKKKHPDASVNFSEFSKKCSERWKTMSAKEKGKFEDMAKADKARYEREMKTYIPP
As to B5, the migration-promoting activity entry in assay [1] (setting [3]) was “showed migration-promoting activity on bone marrow mesenchymal stem cells”.

B6: 89-205: human HMGB1 fragment, positions 89 to 205, produced in E. coli (protein, UniProt P09429 89-205, looked up, fragment)
chain: FKDPNAPKRPPSAFFLFCSEYRPKIKGEHPGLSIGDVAKKLGEMWNNTAADDKQPYEKKAAKLKEKYEKDIAAYRAKGKPDAAKKGVVKAEKSKKKKEEEEDEEDEEDEEEEEDEED
As to B6, the migration-promoting activity result in assay [1] (setting [5]) is “weak migration-promoting activity”.

B7: 2-70: human HMGB1 fragment, positions 2 to 70, produced in E. coli (protein, UniProt P09429 2-70, looked up, fragment)
chain: GKGDPKKPRGKMSSYAFFVQTCREEHKKKHPDASVNFSEFSKKCSERWKTMSAKEKGKFEDMAKADKAR
On to B7, for which the migration-promoting activity entry in assay [1] (setting [3]) is given as “showed migration-promoting activity on bone marrow mesenchymal stem cells”.

B8: 2-195: human HMGB1 fragment, amino acids of positions 2 to 195, produced in E. coli (protein, UniProt P09429 2-195, looked up, fragment)
chain: GKGDPKKPRGKMSSYAFFVQTCREEHKKKHPDASVNFSEFSKKCSERWKTMSAKEKGKFEDMAKADKARYEREMKTYIPPKGETKKKFKDPNAPKRPPSAFFLFCSEYRPKIKGEHPGLSIGDVAKKLGEMWNNTAADDKQPYEKKAAKLKEKYEKDIAAYRAKGKPDAAKKGVVKAEKSKKKKEEEEDEEDEE
As for B8, in assay [1] (setting [6]), the migration-promoting activity entry was “stronger migration-promoting activity than fragments 2-215 and 2-205”.

B9: 2-170: human HMGB1 fragment, positions 2 to 170, produced in E. coli (protein, UniProt P09429 2-170, looked up, fragment)
chain: GKGDPKKPRGKMSSYAFFVQTCREEHKKKHPDASVNFSEFSKKCSERWKTMSAKEKGKFEDMAKADKARYEREMKTYIPPKGETKKKFKDPNAPKRPPSAFFLFCSEYRPKIKGEHPGLSIGDVAKKLGEMWNNTAADDKQPYEKKAAKLKEKYEKDIAAYRAKGKPDA
Take B9: the migration-promoting activity entry in assay [1] (setting [3]) is given as “showed migration-promoting activity on bone marrow mesenchymal stem cells”.

B10: 2-62: human HMGB1 fragment, positions 2 to 62, produced in E. coli (protein, UniProt P09429 2-62, looked up, fragment)
chain: GKGDPKKPRGKMSSYAFFVQTCREEHKKKHPDASVNFSEFSKKCSERWKTMSAKEKGKFED
In the case of B10, the migration-promoting activity result in assay [1] (setting [3]) was “showed migration-promoting activity on bone marrow mesenchymal stem cells”.
